Drawing on patent US20250326840A1 (QURE BIOTECHNOLOGY SHANGHAI, published 2025), this text covers EC50 for five molecules.

One may read the EC50 as the concentration needed to bring the measured effect to its halfway point.

To fix the notation:
T1: SIRPα V1 fusion Fc (mouse IgG2a) (human, limits assumed)
T1 chain: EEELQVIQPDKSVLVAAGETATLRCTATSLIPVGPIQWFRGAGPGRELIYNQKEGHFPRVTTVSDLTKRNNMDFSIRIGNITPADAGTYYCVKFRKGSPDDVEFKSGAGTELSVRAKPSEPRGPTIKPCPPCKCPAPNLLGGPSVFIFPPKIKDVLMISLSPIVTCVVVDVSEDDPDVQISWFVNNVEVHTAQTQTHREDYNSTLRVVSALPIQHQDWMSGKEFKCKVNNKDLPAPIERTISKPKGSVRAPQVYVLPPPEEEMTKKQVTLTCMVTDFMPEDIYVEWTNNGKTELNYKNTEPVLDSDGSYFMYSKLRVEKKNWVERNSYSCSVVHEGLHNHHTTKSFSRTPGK

T2: SIRPα V6 fusion Fc (mouse IgG2a) (human, limits assumed)
T2 chain: T1 chain with S75P

T3: QP538 (SIRPαV9-mFC(mIgG2a)) (human, limits assumed)
T3 construct: also called human SIRPα V9 recombinant protein (QP538)
T3 chain: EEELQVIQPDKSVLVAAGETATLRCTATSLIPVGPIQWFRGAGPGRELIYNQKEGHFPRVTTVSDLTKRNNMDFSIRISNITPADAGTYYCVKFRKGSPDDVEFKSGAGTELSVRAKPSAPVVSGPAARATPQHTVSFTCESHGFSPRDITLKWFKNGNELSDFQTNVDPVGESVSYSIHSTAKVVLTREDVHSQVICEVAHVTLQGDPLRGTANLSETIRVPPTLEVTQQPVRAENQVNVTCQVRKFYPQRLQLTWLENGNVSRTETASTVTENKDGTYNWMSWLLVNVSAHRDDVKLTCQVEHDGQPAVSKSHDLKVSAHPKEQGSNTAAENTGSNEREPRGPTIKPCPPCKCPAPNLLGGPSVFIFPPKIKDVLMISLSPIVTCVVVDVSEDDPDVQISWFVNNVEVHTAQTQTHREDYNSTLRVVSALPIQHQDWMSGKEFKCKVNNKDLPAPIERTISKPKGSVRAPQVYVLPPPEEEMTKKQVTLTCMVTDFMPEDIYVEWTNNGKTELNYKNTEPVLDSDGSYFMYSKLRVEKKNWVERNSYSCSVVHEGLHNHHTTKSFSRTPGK

T4: QP093 (human SIRPα V1 ECD(E31-R370)-mFC(IgG2a)) (human)
T4 construct: also called Human SIRPα V1 recombinant protein (QP093)
T4 chain: T3 chain with S79G

T5: SIRPα V9 fusion Fc (mouse IgG2a) (human, limits assumed)
T5 chain: T1 chain with G79S

B1: QP250251 (18D5 analog) (antibody, human IgG4 S228P, kappa, V domains shown)
VH: QVQLQQPGAELVRPGSSVKLSCKASGYTFTSYWVHWVKQRPIQGLEWIGNIDPSDSDTHYNQKFKDKASLTVDKSSSTAYMQLSSLTFEDSAVYYCVRGGTGTMAWFAYWGQGTLVTVSA
VL: DVVMTQTPLSLPVSLGDQASISCRSSQSLVHSYGNTYLYWYLQKPGQSPKLLIYRVSNRFSGVPDRFSGSGSGTDFTLKISRVEAEDLGVYFCFQGTHVPYTFGSGTKLEIKR
notes: also called SIRPα antibody 18D5 from OSE
B2: QP026249 (KWAR23 analog) (antibody, human IgG4 S228P, kappa)
heavy: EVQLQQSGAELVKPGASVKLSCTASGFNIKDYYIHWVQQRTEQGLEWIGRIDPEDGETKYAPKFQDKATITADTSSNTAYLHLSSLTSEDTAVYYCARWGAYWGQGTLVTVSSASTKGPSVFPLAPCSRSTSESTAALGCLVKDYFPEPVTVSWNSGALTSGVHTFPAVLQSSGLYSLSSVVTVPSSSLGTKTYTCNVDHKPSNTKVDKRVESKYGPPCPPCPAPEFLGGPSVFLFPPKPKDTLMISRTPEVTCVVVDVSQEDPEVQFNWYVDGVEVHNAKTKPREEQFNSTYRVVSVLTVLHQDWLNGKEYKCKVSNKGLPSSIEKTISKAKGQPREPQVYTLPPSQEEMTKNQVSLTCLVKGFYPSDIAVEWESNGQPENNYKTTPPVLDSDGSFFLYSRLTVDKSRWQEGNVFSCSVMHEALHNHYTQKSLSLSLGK
light: QIVLTQSPAIMSASPGEKVTLTCSASSSVSSSYLYWYQQKPGSSPKLWIYSTSNLASGVPARFSGSGSGTSYSLTISSMEAEDAASYFCHQWSSYPRTFGAGTKLELKRTVAAPSVFIFPPSDEQLKSGTASVVCLLNNFYPREAKVQWKVDNALQSGNSQESVTEQDSKDSTYSLSSTLTLSKADYEKHKVYACEVTHQGLSSPVTKSFNRGEC
notes: also called KAWA23 analog; control antibody KWAR23 (QP026249), human IgG4
B3: QP256279 (antibody, human IgG4, V domains shown)
VH: QVQLVQSGAEVKKPGASVKVSCKASGYTFTNYWINWVRQAPGQGLEWIAMIDPSDSETHYNQIFKDRATLTTDTSTSTAYMELRSLRSDDTAVYYCAMDYGSLYAMDYWGRGTLVTVSS
VL: DIVLTQSPDSLAVSLGERATINCRASQSVRSSGYNWIFWYQQKPGQPPKLLIYLASNRDSGVPDRFSGSGSGTDFTLTISSLQAEDVAVYYCQHSRELPTFGQGTKLEIK
notes: Human IgG4 heavy constant region and kappa CL
B4: QP37503751 (1H9 analog) (antibody, human IgG1, kappa, N297A, V domains shown)
VH: QVQLVQSGAEVKKPGASVKVSCKASGYTFTSYWITWVKQAPGQGLEWIGDIYPGSGSTNHIEKFKSKATLTVDTSISTAYMELSRLRSDDTAVYYCATGYGSSYGYFDYWGQGTLVTVSS
VL: DIQMTQSPSSLSASVGDRVTITCRASENIYSYLAWYQQKPGKAPKLLIYTAKTLAEGVPSRFSGSGSGTDFTLTISSLQPEDFATYYCQHQYGPPFTFGQGTKLEIKR
notes: also called hz1H9 hIgG1(N297A)
B5: QP32700279 (antibody, human IgG1, kappa, L234A L235A, V domains shown)
VH: B3 VH
VL: DIVLTQSPDSLAVSLGERATINCRASQSVRSSGYNWIFWYQQKPGQPPKLLIYLASNRDSGVPDRFSGSGSGTDFTLTISSLQAEDVAVYYCQHSRELPTFGQGTKLEIKR
notes: also called SIRPα monoclonal antibody CHO71

Positions count from the first letter of the chain named. Numbers in names are those of the source.

The target in the first assay is T1, SIRPα V1 fusion Fc (mouse IgG2a). Description: ELISA, SIRPα V1-mouse IgG2a Fc coated, anti-hFab detection; unit from the x axis Log(Conc.(nM)). Background: ELISA stands for enzyme-linked immunosorbent assay.
For the molecule B1, it took 154 pM to reach a half-maximal effect (EC50).

The molecule B2 displayed a concentration for a half-maximal effect (EC50) of 160 pM.

With B3, the response was half-maximal at 78.6 pM (EC50).

The target in another assay is T2, SIRPα V6 fusion Fc (mouse IgG2a). Briefly: ELISA, SIRPα V6-mouse IgG2a Fc coated, anti-hFab detection; unit from the x axis Log(Conc.(nM)).
Consider B1, for which the 50% effective concentration (EC50) came out at 114 pM.

Consider B2, for which the half-maximal effective concentration (EC50) came out at 119 pM.

In the case of B3, the concentration giving a half-maximal response (EC50) worked out at 53 pM.

The target in a further assay is T3, QP538 (SIRPαV9-mFC(mIgG2a)). Description: ELISA, human SIRPα V9 recombinant protein (QP538) coated, HRP anti-human Fc detection.
For the molecule B1, the 50% effective concentration (EC50) was 854 pM.

On to B4, for which the EC50 is 438 pM.

Regarding B2, the EC50 came to 804 pM.

As for B5, the half-maximal effective concentration (EC50) came out at 361 pM.

The target of a further assay is T4, QP093 (human SIRPα V1 …). Description: ELISA, human SIRPα V1 recombinant protein (QP093) coated, HRP anti-human Fc detection.
On to B1, for which the EC50 worked out at 438 pM.

B4: the concentration giving a half-maximal response (EC50) was 177 pM.

With B2, the EC50 worked out at 442 pM.

Regarding B5, the EC50 was determined as 161 pM.

For another assay, the target named is T5, SIRPα V9 fusion Fc (mouse IgG2a). Description: ELISA, SIRPα V9-mouse IgG2a Fc coated, anti-hFab detection; unit from the x axis Log(Conc.(nM)).
For B1, a half-maximal response (EC50) required 157 pM.

As to B2, a half-maximal response (EC50) required 181 pM.

The molecule B3 came in with a concentration giving a half-maximal response (EC50) of 87.5 pM.
